{
  "source": "paper PMC2699888",
  "about": "(Oncogene, 2006)",
  "note": "Ends that are not written are not given here. * marks the point of attachment. Biotin = O=C1N[C@H]2[C@H](CS[C@H]2CCCCC(=O)*)N1",
  "data": [
    {"target": "purified human PCNA (human, UniProt P12004 1-261)", "sequence (P12004 whole entry)": "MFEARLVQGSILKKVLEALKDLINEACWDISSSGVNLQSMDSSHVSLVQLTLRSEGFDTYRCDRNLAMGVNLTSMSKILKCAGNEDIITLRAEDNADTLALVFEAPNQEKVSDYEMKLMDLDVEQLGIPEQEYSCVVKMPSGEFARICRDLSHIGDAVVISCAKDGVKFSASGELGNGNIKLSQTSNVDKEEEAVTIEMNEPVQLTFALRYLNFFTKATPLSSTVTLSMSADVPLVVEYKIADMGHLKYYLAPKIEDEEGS", "assay": "ELISA", "values": [
      {"binder": "Biotin-SGSGDPLWCQSAVFLIRMWLRSRN", "note": "[pep103, biotinylated synthetic peptide]", "binding result": "binds"},
      {"binder": "Biotin-SGSGDPDCGCSRRGCVLRMIRRRN (cysteine pairing not given here)", "note": "[pep102, biotinylated synthetic peptide]", "binding result": "binds"},
      {"binder": "Biotin-SGSGKLFNLHINSAVLQKKITDYF", "note": "[pogo, biotinylated peptide derived from the Drosophila Pogo transposase]", "binding result": "binds"}
    ]}
  ]
}
